The values below come from US20120214174.

Positions count from the first letter of the chain named. Names may count otherwise.

The target of data set [1] is T1, MUC1-a peptide (AHGVTSAPDTR).
T1 chain: AHGVTSAPDTR

Data set [2] has as its target T2, MUC1-b peptide (RPAPGSTAPPA).
T2 chain: RPAPGSTAPPA

For data set [3], the target named is endogenous MUC1 protein (Mucin-1).

B1: recombinant wild-type GALNT6 protein without a signal peptide (codons 35-622), His-tagged (protein)
chain: EEATEKPWLKSLVSRKDHVLDLMLEAMNNLRDSMPKLQIRAPEAQQTLFSINQSCLPGFYTPAELKPFWERPPQDPNAPGADGKAFQKSKWTPLETQEKEEGYKKHCFNAFASDRISLQRSLGPDTRPPECVDQKFRRCPPLATTSVIIVFHNEAWSTLLRTVYSVLHTTPAILLKEIILVDDASTEEHLKEKLEQYVKQLQVVRVVRQEERKGLITARLLGASVAQAEVLTFLDAHCECFHGWLEPLLARIAEDKTVVVSPDIVTIDLNTFEFAKPVQRGRVHSRGNFDWSLTFGWETLPPHEKQRRKDETYPIKSPTFAGGLFSISKSYFEHIGTYDNQMEIWGGENVEMSFRVWQCGGQLEIIPCSVVGHVFRTKSPHTFPKGTSVIARNQVRLAEVWMDSYKKIFYRRNLQAAKMAQEKSFGDISERLQLREQLHCHNFSWYLHNVYPEMFVPDLTPTFYGAIKNLGTNQCLDVGENNRGGKPLIMYSCHGLGGNQYFEYTTQRDLRHNIAKQLCLHVSKGALGLGSCHFTGKNSQVPKDEEWELAQDQLIRNSGSGTCLTSQDKKPAMAPCNPSDPHQLWLFV
For the protein B1, the “in vitro GalNAc-transferase assay (HPLC of DNS-labelled peptide)” value (“in vitro GalNAc-transferase assay” for short) in data set [1] and in data set [2] was “WT-GALNT6 rapidly O-glycosylated MUC1 peptides in 10-min incubation” each time.

B2: recombinant GALNT6 E382Q mutant protein (protein)
chain: B1 chain with E348Q
On to B2, for which the “in vitro GalNAc-transferase assay” value in data set [1] is “mutant-GALNT6 proteins (H271D and E382Q) could not transfer GalNAc to MUC1 peptides even by 16 hours incubation”; in data set [2] it was “mutant-GALNT6 proteins (H271D and E382Q) could not transfer GalNAc to MUC1 peptides even by 16 hours incubation”.

B3: recombinant GALNT6 H271D mutant protein (protein)
chain: B1 chain with H237D
On to B3, for which the “in vitro GalNAc-transferase assay” value was “mutant-GALNT6 proteins (H271D and E382Q) could not transfer GalNAc to MUC1 peptides even by 16 hours incubation” in data set [1]; “mutant-GALNT6 proteins (H271D and E382Q) could not transfer GalNAc to MUC1 peptides even by 16 hours incubation” in data set [2].

B4: HA-tagged wild-type GALNT6 protein stably expressed in HeLa cells (pCAGGS-GALNT6-HA) (protein)
chain: MRLLRRRHMPLRLAMVGCAFVLFLFLLHRDVSSREEATEKPWLKSLVSRKDHVLDLMLEAMNNLRDSMPKLQIRAPEAQQTLFSINQSCLPGFYTPAELKPFWERPPQDPNAPGADGKAFQKSKWTPLETQEKEEGYKKHCFNAFASDRISLQRSLGPDTRPPECVDQKFRRCPPLATTSVIIVFHNEAWSTLLRTVYSVLHTTPAILLKEIILVDDASTEEHLKEKLEQYVKQLQVVRVVRQEERKGLITARLLGASVAQAEVLTFLDAHCECFHGWLEPLLARIAEDKTVVVSPDIVTIDLNTFEFAKPVQRGRVHSRGNFDWSLTFGWETLPPHEKQRRKDETYPIKSPTFAGGLFSISKSYFEHIGTYDNQMEIWGGENVEMSFRVWQCGGQLEIIPCSVVGHVFRTKSPHTFPKGTSVIARNQVRLAEVWMDSYKKIFYRRNLQAAKMAQEKSFGDISERLQLREQLHCHNFSWYLHNVYPEMFVPDLTPTFYGAIKNLGTNQCLDVGENNRGGKPLIMYSCHGLGGNQYFEYTTQRDLRHNIAKQLCLHVSKGALGLGSCHFTGKNSQVPKDEEWELAQDQLIRNSGSGTCLTSQDKKPAMAPCNPSDPHQLWLFV
In the case of B4, the “Western blot of MUC1 in stable HeLa transformants (band shift by O-glycosylation)” value in data set [3] is “In the cells with WT-GALNT6 (clone no. 101, 110 and 304), the highest molecular weight of MUC1 protein (>250 kDa) was observed”.

B5: HA-tagged GALNT6 H271D mutant stably expressed in HeLa cells (pCAGGS-GALNT6 (H271D)-HA) (protein)
chain: B4 chain with H271D
Regarding B5, the “Western blot of MUC1 in stable HeLa transformants (band shift by O-glycosylation)” value in data set [3] is “in those with mock (clone no. 001, 003 and 006) or H271D (clone no. 102, 212 and 114) the shifted band was not observed”.
